Assay results from the nanobody polyreactivity screen of Harvey et al. (2022).

Experiment: yeast display, Sf9 membrane polyspecificity reagent, FACS + sequencing; frameworks hold sequencing errors
Summary of the method: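 Nanobodies from a synthetic yeast display library (Saccharomyces cerevisiae BJ5465), induced 36–48 hours with galactose, were stained 1 hour at 4 °C with 10% biotinylated, detergent-solubilized Sf9 membrane reagent, enriched on streptavidin microbeads, then FACS-sorted. Anti-HA (expression) and streptavidin (reagent binding) fluorescence set low and high (top ~1%) gates. Polyreactivity labels come from the gate of origin. Genes were colony-PCR amplified, MiSeq 2 × 250 sequenced and filtered by CDR length.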

| Sequence | polyreactivity (PSR sort gate) |
| --- | --- |
| QVQLVESGGGLVQAGGSLRLSCAASGRTFVPYAMGWYRQAPGKERELVARIDSSGGSTYYADSVKGRFTISRDNAKNTVYLQMNSLKPEDTAVYYCAAVFYYWSLRSYYWGQGTQVTVSS | high polyreactivity |
| QVQLVESGGGLVQAGGSLRLSCAASGRTFVQNAMGWYRQAPGKERELVASIRYRDGSTYYADSVKGRFTISRDNAKNTVYLQMNSLKPEDTAVYYCAAYLPGWELREYGYWGQGTQVTVSS | high polyreactivity |
| QVQLVESGGGLVQAGGSLRLSCAASGRTFVQYVMGRYRQAPGKERELVAAITSSGGSTYADSVKGRFTISRDNAKNTVYLQMNSLKPEDTAVYYSAADYLDGVGDVEHDYWGQGTQVTVSS | low polyreactivity |
| QVQLVESGGGLVQAGGSLRLSCAASGRTFVRNAMGWYRQAPGKERELVAAISVDGSSTYYADSVKGRFTISRDNAKNTVYLQMNSLKPEDTAVYYCNADWDYRDFYDITYDYWGQGTQVTVSS | low polyreactivity |
| QVQLVESGGGLVQAGGSLRLSCAASGRTFVRNTMGWYRQAPGKERELVAAISGGGSTYYADSVKGRFTISRDNAKNTVYLQMNSLKPEDTAVYYCAATTRRQGGKRFDYWGQGTQVTVSS | high polyreactivity |
| QVQLVESGGGLVQAGGSLRLSCAASGRTFVRYAMGWSRQAPGKERELVAAITKSGGSTSYADSVKGRFTISRDNAKNTVYLQMNSLKPEDTAVYYCATRGYYQRSSPMDYWGQGTQVTVSS | high polyreactivity |
| QVQLVESGGGLVQAGGSLRLSCAASGRTFVRYAMGWYRQAPGKERELVAAISLRGGRTYYADSVKGRFTISRDYANNTVYLQMNSRNPEDTAVYYCAARSYPTGASFDYWGQGTQVTVSS | high polyreactivity |
| QVQLVESGGGLVQAGGSLRLSCAASGRTFVRYAMGWYRQAPGKERELVAAISWSGGSTYYADSVKGRFTISRDNAKNTVYLQMNSLKPADTAVYYCAAYYRGRNFDYCGQGTQVTVSS | high polyreactivity |
| QVQLVESGGGLVQAGGSLRLSCAASGRTFVSNAMGWYRQAPGKERELVATITVSSDSTYYADSVKGRFTISRDNAKNTVYLQMNSLKPEDTAVYYCAARNPTWSFQFDYWGQGTQVTVSS | low polyreactivity |
| QVQLVESGGGLVQAGGSLRLSCAASGRTFVSYAMGWSRQAPGKERELVATITGSTGGTYYADSVKGRFTISRDNAKNTVYLQMNSLKPEDTAVYYCNKDYYYNPGNVASGYDYWGQGTQVTVSS | low polyreactivity |
| QVQLVESGGGLVQAGGSLRLSCAASGRTFVSYAMGWYRQAPGKERELVAGITWRGGSTYYADSVKGRFTISRDNAKNTVYLQMNSLTPEDTAVYYCAKRSVLYGNRIFDYWGQGTQVTVSS | high polyreactivity |
| QVQLVESGGGLVQAGGSLRLSCAASGRTFVSYDMGWYRQAPGKERELVAAITYSGGSSTYYADSVKGRFTISRDNAKNTVYLQMNSLKPEDTAVYYCATDYSLSFELDYWGQGTQVTVSS | low polyreactivity |
| QVQLVESGGGLVQAGGSLRLSCAASGRTFVTYAMGWYRQAPGKERELVAAISKRGSRTYYADSVKGRFTISRDNAKNTVYLQMNSLKPEDTAVYYCNAYPYRTSYDYWGQGTQVTVSS | high polyreactivity |
| QVQLVESGGGLVQAGGSLRLSCAASGRTFVVNAMGWSRQAPGKERELVAAITRRGGITYYADSVKGRFTISRDNAKNTVYLQMNSLKPEDTAVYYCAADRSYYPDTRTTYGYNYWGQGTQVTVSS | low polyreactivity |
| QVQLVESGGGLVQAGGSLRLSCAASGRTFVVNAMGWYRQAPGKERELVARITNSGLTNYADSVKGRFTISRDNAKNTVYLQMNSLKPEDTAVYYCNAAASYYVMLSWTRVYYWGQGTQVTVSS | high polyreactivity |
| QVQLVESGGGLVQAGGSLRLSCAASGRTFVVYAMGWYRQAPGKERELVAVIRVIGGSTNYADSVKRRFTISRDNAKNTVYLQMYSLKPEDTAVYYCAAAWSHSRWDTHDYWGQGTQVNVSS | low polyreactivity |
| QVQLVESGGGLVQAGGSLRLSCAASGRTFVVYAMGWYRQAPGKERELVAVISFTGDSTFYADSVKGRFTISRDNGKNTVYLQMNSLKPEDTAVYYCAADFRRVFSKYSYYLYFDFDYWGQGTLVTVSS | low polyreactivity |
